Experimental data: patent publication US20240010687A1 (University of Washington, published 2024)

T1: A113_c2arms9_Axle (D3-C5)
T1 construct: De novo designed D3 homohexameric axle; For biolayer interferometry it was Avi-tagged and biotinylated; also called D3 axle; axle of the D3-C5 rotor
T1 chain: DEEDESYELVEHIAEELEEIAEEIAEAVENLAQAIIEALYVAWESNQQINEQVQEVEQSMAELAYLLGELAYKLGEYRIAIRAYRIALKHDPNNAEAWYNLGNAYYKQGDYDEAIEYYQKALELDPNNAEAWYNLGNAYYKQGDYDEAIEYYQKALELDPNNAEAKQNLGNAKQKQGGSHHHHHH

T2: A15.5R82_Axle (C3-C3)
T2 construct: C3 homotrimeric axle with DHR arms; also called C3 axle
T2 chain: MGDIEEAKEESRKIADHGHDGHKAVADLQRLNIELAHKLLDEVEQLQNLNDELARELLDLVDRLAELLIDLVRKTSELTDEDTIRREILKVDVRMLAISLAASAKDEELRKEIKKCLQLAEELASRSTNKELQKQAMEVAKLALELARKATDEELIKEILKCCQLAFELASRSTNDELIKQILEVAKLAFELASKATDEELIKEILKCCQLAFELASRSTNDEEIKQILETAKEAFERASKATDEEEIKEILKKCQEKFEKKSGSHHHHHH


How the values were obtained:
[1] = molecular target: T1, A113_c2arms9_Axle (D3-C5); assay: EM, biolayer interferometry, SEC and SAXS of the assembled rotor
Procedure: FIG. 13. Biolayer interferometry assays measuring in vitro assembly of ring and axle parts into a full rotary system. For each 6 designs, the equilibrium binding curves from biolayer interferometry binding assays is shown on the left and the corresponding Biolayer interferometry kinetic binding traces shown on the right. Biotinylated axles were immobilized on the tip and the binding in a solution of fre rings was measured. For both D3-C5 and D3-C3, a fresh ring solution was prepared by buffer exchange from citrate buffer to TBS with reducing agent, and immediately used for binding assays.
Protein samples were purified by SEC in 25 mM Tris pH 8.0, 25 mM NaCl and 1% glycerol; elution fractions corresponding to the protein were further concentrated using 3K protein concentrators (Millipore Sigma) and the flow-through was used as blank for buffer subtraction. SAXS Scattering measurements were performed at the SIBYLS 12.3.1 beamline at the Advanced Light Source. […] Collected data were processed using the SAXS FrameSlice™ online server and analysed using the ScÅtter software package(23). […]

[2] = molecular target: T2, A15.5R82_Axle (C3-C3); assay: single particle cryoEM of the assembled rotor (6.5 Å)
Procedure: Multiple datasets were collected for each design and combined early on during processing. See table 1 and processing flowcharts for details. Briefly, images were manually curated to remove poor quality acquisitions such as bad ice or large regions of carbon. Dose-weighting and image alignment of all 50 frames was carried out using MotionCor2 (56) with 5×5 patch or with cryosparc v2 patch alignment tool with default parameters. Super-resolution krios data was binned 2X during alignment. Initial CTF parameters were estimated using CTFfind4 (57). Particle picking was done with a gaussian blob picker and in some cases followed by a template picker. Particles were extensively classified in 2D to remove junk particles and designs which may not have been intact or were damaged, yielding in some cases relatively few particles. […] In addition, the expected motion of the rotors may have introduced further heterogeneity, limiting classification efforts. Starting models for all designs were always obtained ab initio, despite clear evidence of the expected design in 2D. […] FSC 0.143 curves were generated by exporting half maps to relion for post-process. […] For density modification in Phenix (59), we used as input the exported half maps from cryosparc with default params at 100 bins and local filtering with a factor of 5. […] Directional FSC calculated using remote 3DF SC processing tool. […]

Binder	binding result [1]	binding result [2]
A113_c2arms9_Ring (D3-C5) (designed binder, De novo designed C5 homopentameric ring; also called C5 ring; ring of the D3-C5 rotor) MGDRSEHAKKLKTFLENLRRHLDRLDKHIKQLRDILSENPEDERVKDVIDLSERSVRIVKTVIKIFEDSVRELEKAILWLAEELAKSPDPEDLKRAVELARAVIEANPGSNLSRKAMEIIERAARELSKLPDPEAQRTAIEAASQLATMAAATGNTDQVRRAAELMVEIARLAGTEEAQDLALDALLDVLETALQIATKIIDDANKLLEKLRRSERKDPKVVETYVELLKRHEEAVRLLLEVARVHEELVRFTIIEEKVRSPDCEDIRDAVREAEELLRENPSEMAEELLRRAIEAAVRCPDCEAIREAVRAAEELLRENPSTEAEELLRRAIEAAVRCPDCEAIREAVRAAEELLRENPSEEAKELLRRAIESAKKCPDPEAQREAKRAEEELRKEGSHHHHHH	binds	–
A15.5R82_Ring (C3-C3) (designed binder, C3 ring of three subunits, each fused to DHR82; also called C3 ring) MGVEELLLLARAAHHSGTTVEEAYKLAKKLGISVKELLLLARAAHNSGTTVEEAYKLALKLGISVEELLLLAKAAHYSGTTVEEAYKLALELGISVRELLLLAKAAHFAGRTVREAYALELALGALRLEDRARELIKEAEKKGDPEKLREALEALEEAVRLVEEAIKLRPDMDLAVEIAVRLARMLKRVAELLQELAKKTGDPELLKLALRALEVAVRAVELAIKSNPDNDEAVETAVRLARELKKVAEELQERAKKTGDPELLKLALRALEVAVRAVELAIKSNPDNEEAVETAKRLAEELRKVAELLEERAKETGDPELQELAKRAKEVADRARELAKKSGSHHHHHH	–	binds
